Literature values as cited in paper PMC11631806.

Molecular target: Cys32 (UniProt position 32, FSATWCGPCKM)
Settings: not stated (reduced dithiol form implied by thiol titration)

In the case of “Thioredoxin (cytosolic Trx, Trx1) (Homo sapiens (inferred; the article does not name the species for these values))”, the pKa is listed as 6.3 ± 0.1.
